Molecular target: T1, SALL4 ZFC4 (human, UniProt Q9UJQ4 856-930)
T1 sequence: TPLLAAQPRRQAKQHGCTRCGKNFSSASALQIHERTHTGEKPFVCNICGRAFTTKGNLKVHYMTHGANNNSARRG
Assay: ITC

B1: 12-mer T3C/A3'G (dsDNA)
DNA 1: GGCAATATTTCC
DNA 2: GGAAATATTGCC
- Kd: ~9.95 µM
